These results are taken from patent US20260167718A1 (Merck Sharp & Dohme, published 2026).

Test [1] deals with T1, human ILT3 expressed on cells (human, UniProt Q8NHJ6 22-448).
T1 construct: whole, on cells; also called huILT3; LILRB4
As to the kind of experiment: cELISA, CHO human ILT3 cells. The method, then: (§1) Mouse anti-human ILT3 antibodies were tested for binding to human ILT3, and cross-reactivity to Rhesus monkey ILT3, human ILT5, human ILT7, human ILT8, and human ILT11 expressing CHO-K1 cells using a cell-based ELISA format. CHO-K1 cells were plated in 96-well tissue-culture plates in 50 μL of DMEM/F12, 10% BCS and gentamycin (CHO-K1 media). Cells were plated at either 2×10⁴ cells/well two days prior to the assay or 4×10⁴ cells/well one day prior to the assay. Media was removed from the wells prior to adding the test samples. Purified antibody was serially-diluted in CHO-K1 media and added to the CHO-K1 plates. The samples were incubated at room temperature for 30-60 minutes and plates were washed three times with PBS/05% Tween-20 using the cell wash program on the Biotek EL405x Select CW plate washer. Binding was detected using an HRP-conjugated goat anti-mouse IgG (Southern Biotech cat #1031-05) secondary antibody added at a 1:2000 dilution in CHO-K1 media and incubated at room temperature for 30-60 minutes. Assay plates were washed as above and developed with TMB and stopped with TMB stop solution (KPL cat #50-85-06). The absorbance at 450 nm—620 nm was determined. Mouse IgG1 (MIgG1) served as a control.

Test [2] deals with T1, human ILT3 expressed on cells. As to the kind of experiment: cELISA, CHO human ILT3 cells. This is another data set of the same source.
Test [3] addresses T2, Human ILT3 (LILRB4) extracellular domain with C-terminal His Tag (human, UniProt Q8NHJ6 22-259).
T2 construct: the claims count residues 1-238 as the extracellular domain; also called human ILT3-His; ILT3_H
As to the kind of experiment: SPR (Biacore), human ILT3-His. A general note: Surface plasmon resonance follows binding to a sensor surface in real time, without labels.

The target in test [4] is T3, Rhesus monkey ILT3 expressed on CHO-K1 cells (rhesus monkey (Macaca mulatta)).
T3 construct: whole, on cells; also called rhILT3; CHO-rhesus ILT3
As to the kind of experiment: cELISA, CHO rhesus ILT3 cells. How it is done:
as §1

Test [5] has as its target T3, Rhesus monkey ILT3 expressed on CHO-K1 …. As to the kind of experiment: cELISA, CHO rhesus ILT3 cells. The source holds these as a separate data set.
The target of test [6] is T4, rhesus ILT3-His tagged recombinant protein (rhesus monkey (Macaca mulatta)).
T4 construct: also called ILT3_MM; not shown: His tag
T4 chain: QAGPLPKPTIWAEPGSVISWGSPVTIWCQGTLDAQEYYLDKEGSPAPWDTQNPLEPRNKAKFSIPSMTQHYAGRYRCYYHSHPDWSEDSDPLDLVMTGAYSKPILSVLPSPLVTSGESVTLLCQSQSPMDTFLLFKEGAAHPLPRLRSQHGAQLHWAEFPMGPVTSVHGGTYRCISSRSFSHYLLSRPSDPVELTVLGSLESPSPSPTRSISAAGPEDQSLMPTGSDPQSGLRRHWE
As to the kind of experiment: SPR (Biacore), rhesus ILT3-His.

Test [7] concerns the target T4, rhesus ILT3-His tagged recombinant …. As to the kind of experiment: SPR (Biacore), rhesus ILT3-His. The gist of the method:
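Antibodies captured on anti-human Fc surface, with human or rhesus ILT3-His as analyte in HBS-EP+ running buffer; reference flow cell subtracted, regeneration with 3M MgCl₂. ka and kd obtained from 1:1 Langmuir fits, KD = kd/ka.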

In test [8] the target is T2, Human ILT3 (LILRB4) extracellular …. As to the kind of experiment: SPR (Biacore), human ILT3-His; Table 7 value; Table 5 gives 1.79 × 10^-09 M. The method, then:
The binding kinetics and affinities of anti-human ILT3 clones for human or rhesus ILT3-His tagged recombinant protein were measured by surface plasmon resonance using a Biacore™ T200 system (GE Healthcare, Piscataway, NJ). HBS-EP+ buffer (BR-1006-69) was used as the running buffer. Anti-human Fc antibody (Human Fc Capture Kit, BR100839, GE Healthcare) was immobilized via amine coupling chemistry in all four flow cells on a Series S CM5 sensor chip (BR100530 or 29149603, GE Healthcare) following manufacturer instructions. Flow cell 1 was used as reference for background subtraction and was not used for capture. […] Following each injection cycle, all four flow cells were regenerated using 30 second injection of 3M MgCl₂ solution at a flow rate of 10 μL/minute. Reference subtracted sensorgrams were fit to a 1:1 Langmuir Binding Model in the Biacore™ T200 Evaluation Software (Version 2.0) to determine the association (ka) and dissociation (kd) rate constants and the equilibrium dissociation constant KD (=kd/ka).
Table 7 summarizes the binding kinetics and affinities for the ani-human ILT3 antibodies to recombinant human or rhesus ILT3.

Where two headings read alike, the source gives them in different places.

B1: Rat anti-ILT3 mAb 40A6 IgG2a/Kappa (antibody, V domains shown)
VH: QVQLKESGPGLVQASETLSLTCTVSGFSLTSYSINWVRQSSGKGPEWMGRFWYDEGIAYNLTLESRLSISGDTSKNQVFLKMNSLRTGDTGTYYCTRDRDTVGITGWFAYWGQGTLVTVSS
VL: ETVMTQSPTSLSASIGERVTLNCKASQSVGVNVDWYQQTPGQSPKLLIYGSANRHTGVPDRFTGSGFGSDFTLTISDVEPEDLGVYYCLQYGSVPYTFGAGTKLELK
notes: Rat IgG2a/Kappa; also called p40A6; LB184.40A6.1C1
In the case of B1, the EC50 turned out to be 0.0179 µg/mL in test [1], 17.9 µg/mL in test [2], 0.0259 µg/mL in test [4] and 25.9 µg/mL in test [5]. Besides, the Kd in test [3] was 1.79 nM; in test [6], 0.946 nM; in test [7], 0.995 nM; in test [8], 0.713 nM.

Usually EC50 stands for the concentration that produces a half-maximal response. In general, Kd refers to the free concentration of one partner at which half of the binding sites on the other are occupied at equilibrium, for simple one-to-one binding.
